Reference: patent US20250092135A1 (NANJING LEADS BIOLABS, published 2025)

T1: human MUC16 protein (ECT_TM huMuc16) on 293T cells (human)
T1 chain: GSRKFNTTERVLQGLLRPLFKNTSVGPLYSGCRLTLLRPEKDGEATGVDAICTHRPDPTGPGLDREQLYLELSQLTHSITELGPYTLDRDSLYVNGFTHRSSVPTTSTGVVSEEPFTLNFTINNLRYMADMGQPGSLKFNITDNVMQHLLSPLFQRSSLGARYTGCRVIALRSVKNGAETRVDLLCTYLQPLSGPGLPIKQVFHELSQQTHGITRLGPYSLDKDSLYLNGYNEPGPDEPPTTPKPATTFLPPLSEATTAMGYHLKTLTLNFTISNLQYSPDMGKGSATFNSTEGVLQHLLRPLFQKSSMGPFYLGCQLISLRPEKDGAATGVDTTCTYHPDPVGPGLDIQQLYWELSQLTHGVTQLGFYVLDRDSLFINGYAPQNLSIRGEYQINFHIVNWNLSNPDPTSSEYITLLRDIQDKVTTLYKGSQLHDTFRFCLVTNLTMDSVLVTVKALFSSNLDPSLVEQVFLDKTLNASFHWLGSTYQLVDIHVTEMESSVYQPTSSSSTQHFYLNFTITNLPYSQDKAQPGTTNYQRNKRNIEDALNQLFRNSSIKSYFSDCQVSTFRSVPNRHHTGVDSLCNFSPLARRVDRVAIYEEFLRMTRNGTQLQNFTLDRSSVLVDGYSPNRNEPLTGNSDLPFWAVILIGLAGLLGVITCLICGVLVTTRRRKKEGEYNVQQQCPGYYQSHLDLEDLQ

T2: Cynomolgus monkey MUC16-His (cynomolgus monkey)
T2 construct: The entry includes the C-terminal 6xHis tag; also called Cynomolgus monkey MUC16 protein
T2 chain: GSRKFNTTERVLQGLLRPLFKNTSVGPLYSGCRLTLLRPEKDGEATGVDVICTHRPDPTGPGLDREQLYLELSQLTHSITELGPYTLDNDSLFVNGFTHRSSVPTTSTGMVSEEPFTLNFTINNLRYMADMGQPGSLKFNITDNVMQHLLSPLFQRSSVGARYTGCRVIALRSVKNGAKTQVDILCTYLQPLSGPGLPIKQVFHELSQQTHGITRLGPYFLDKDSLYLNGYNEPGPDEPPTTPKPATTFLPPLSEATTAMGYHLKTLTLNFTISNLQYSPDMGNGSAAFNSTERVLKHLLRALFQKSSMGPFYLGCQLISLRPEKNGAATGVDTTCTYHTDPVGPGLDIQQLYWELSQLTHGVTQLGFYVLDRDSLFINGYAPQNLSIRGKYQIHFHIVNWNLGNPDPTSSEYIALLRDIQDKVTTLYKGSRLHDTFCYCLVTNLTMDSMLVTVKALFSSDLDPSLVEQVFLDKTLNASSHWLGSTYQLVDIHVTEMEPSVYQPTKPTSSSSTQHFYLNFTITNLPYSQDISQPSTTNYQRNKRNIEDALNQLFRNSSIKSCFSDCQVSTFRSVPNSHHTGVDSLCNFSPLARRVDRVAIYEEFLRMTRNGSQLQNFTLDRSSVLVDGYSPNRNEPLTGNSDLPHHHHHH

B1: anti-MUC16 antibody 776.1(C33S) (antibody, human IgG1, kappa, L234A L235A, V domains shown)
VH: EVQLQQSGPELVKPGASVKISCKASGYTFTDYNIHWVKQSHGKILEWIGYIYPYNGVSDYNQNFKSKATLIVDNSSNTAYMELRSLTSEDSAVYYCARWDFGSGYYFDYWGQGTTLTVSS
VL: QIVLSQSPAILFASPGETVTMTCRASSSVIYMSWNQQKPGSSPKPWIYGTSTLASGVPTRFSGSGSGTSYSLTISRVEAEDAATYYCQQWSSNPFTFGSGTKLEIKR
B2: anti-CD3/MUC16 bispecific antibody MCH7-23L2-MCH7 (bispecific antibody, human IgG1, kappa, L234A L235A)
heavy 1: QVQLVQSGAEVKKPGASVKVSCKASGYTFTDYNIHWVRQAPGQGLEWMGYIYPYNGVSDYNQNFKSRVTMTTDTSTSTAYMELRSLRSDDTAVYYCARWDFGSGYYFDYWGQGTLVTVSSASTKGPSVFPLAPSSKSTSGGTAALGCLVKDYFPEPVTVSWNSGALTSGVHTFPAVLQSSGLYSLSSVVTVPSSSLGTQTYICNVNHKPSNTKVDKKVEPKSCEVQLVESGGGLVQPGGSLKLSCAASGFTFSTYAMNWVRQAPGKGLEWVGRIRSKYNNYATYYADSVKDRFTISRDDSKNTLYLQMNSLKTEDTAVYYCTRHGNFGNSYVSWFAYWGQGTTVTVSSGGGGSGGGGSGGGGSQAVVTQEPSLTVSPGGTVTLTCRSSTGAVTTSNYANWVQQKPGQAPRGLIGGTNKRAPGVPARFSGSLLGGKAALTLSGAQPEDEAEYFCALWYSNLWVFGGGTKLTVLGEPKSSDKTHTCPPCPAPEAAGGPSVFLFPPKPKDTLMISRTPEVTCVVVAVSHEDPEVKFNWYVDGVEVHNAKTKPREEQYNSTYRVVSVLTVLHQDWLNGKEYKCKVSNKALAAPIEKTISKAKGQPREPQVCTLPPSRDELTKNQVSLSCAVKGFYPSDIAVEWESNGQPENNYKTTPPVLDSDGSFFLVSKLTVDKSRWQQGNVFSCSVMHEALHNHYTQKSLSLSPGK
heavy 2: not shown
light: EIVLTQSPATLSLSPGERATLSCRASSSVIYMSWYQQKPGQAPRLLIYGTSTLASGIPARFSGSGSGTDFTLTISSLEPEDFAVYYCQQWSSNPFTFGQGTKLEIKRTVAAPSVFIFPPSDEQLKSGTASVVCLLNNFYPREAKVQWKVDNALQSGNSQESVTEQDSKDSTYSLSSTLTLSKADYEKHKVYACEVTHQGLSSPVTKSFNRGEC
notes: MCH7-23L2ScFv-Hole (VH-CH1-scFv-Fc) + MCH7-KIH-Knob + two light chains MCL4 LC

Key:
[1] = target: T1, human MUC16 protein (ECT_TM huMuc16) on …; test: flow cytometry, 293T/hMUC16 cells, PE anti-human IgG Fc secondary, MFI; EC50 table under the plot, unit from the axis Conc.(nM)
Procedure: The serially diluted anti-human MUC16 antibodies (at an initial concentration of 200 nM, 4-fold dilution, 8 points in total) obtained in the present application were added to the cells, and the cells were incubated at 4° C. for 30 min. The cells were washed twice with PBS, and then fluorescent secondary antibody R-PE-conjugated AffiniPure Goat Anti-Human IgG, Fcγ Fragment Specific (Jackson ImmunoResearch, Cat #109-116-098) was added. The cells were incubated at 4° C. for 30 min. The cells were washed twice with PBS and then resuspended, and finally, fluorescence signals were detected using a BD Accuri C5 (BD Bioscience) flow cytometer.

[2] = target: T2, Cynomolgus monkey MUC16-His; test: BLI (ForteBio Octet RED96), antibody on AHC sensor, analyte 100-3.13 nM, 1:1 model
From the text: In this experiment, the binding affinity of the bispecific antibody for the human CD3 protein (Cat #CT038-H2508H, Sinobiological), cynomolgus monkey CD3 protein (Cat #CDD-C52W4, Acrobiosystems), human MUC16 protein (full-length human MUC16, the membrane-proximal end of the extracellular region of MUC16 (Table 26)), and cynomolgus monkey MUC16 protein (full-length cynomolgus monkey MUC16, the membrane-proximal end of the extracellular region of MUC16 (Table 26)) was detected using ForteBio Octet RED96 according to the manufacturer's instructions.
Briefly, an AHC sensor (ForteBio, Cat #18-5060) was placed in a running buffer (1×PBS, Hyclone, Cat #SH30256.01, containing 0.02% Tween 20, pH 7.0) and pre-equilibrated at room temperature for 10 min. […] The experimental data were fitted and calculated using a Fortebio Data Analysis software 1:1 binding model.

[3] = target: T3, human CD3 protein endogenously expressed on Jurkat cells (human, UniProt P07766 23-207); test: flow cytometry, Jurkat cells (endogenous CD3), PE anti-human IgG Fc secondary, MFI; EC50 table under the plot, unit from the axis Conc.(nM); curve flat at about 1250 up to about 33 nM, about 1900-2200 at the two top concentrations
T3 construct: whole, on cells; The whole CD3 complex is on the cells; also called CD3 on Jurkat cells; CD3 on Jurkat/NFAT-luc cells
T3 sequence (P07766 23-207): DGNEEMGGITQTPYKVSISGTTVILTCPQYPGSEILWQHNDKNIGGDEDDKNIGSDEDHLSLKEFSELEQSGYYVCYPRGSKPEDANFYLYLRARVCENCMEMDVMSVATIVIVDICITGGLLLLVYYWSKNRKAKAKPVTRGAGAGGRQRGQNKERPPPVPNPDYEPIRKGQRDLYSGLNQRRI
Procedure: (3) Whether the anti-CD3/anti-MUC16 bispecific antibodies in the present invention could bind to the CD3 protein endogenously expressed on Jurkat cells (Cell Bank of Type Culture Collection Committee of the Chinese Academy of Sciences, Cat #SCSP-513) was determined by cell binding experiments. Detection was performed using the flow cytometry described above, with the following differences: the dilution gradient for the test bispecific antibody was: a maximum concentration of 200 nM, starting from a second concentration of 100 nM, 5-fold dilution, 10 points; the bispecific antibodies were added to Jurkat cells, and the cells were incubated at 4° C. for 30 min. The cells were washed twice with PBS, and then fluorescent secondary antibody R-PE-conjugated AffiniPure Goat Anti-Human IgG, Fcγ Fragment Specific was added. The cells were incubated at 4° C. for 30 min. The cells were washed twice with PBS and then resuspended, and finally, fluorescence signals were detected using a BD Accuri C5 (BD Bioscience) flow cytometer.

Row | Binder | EC50 [1] | Kd [2] | koff [2] | kon [2] | EC50 [3]
1 | B1 | 12.9 nM | – | – | – | –
2 | B2 | – | 2.91 nM | 0.000546 s⁻¹ | 188000 M⁻¹ s⁻¹ | ~39.3 nM
